Source: PMC7464562

Biological target: SARS-CoV-2 S2 fragment (fusion fragment; postfusion S2 trimer, peak 2) (SARS-CoV-2)
Assay: cryo-EM structure

## SARS-CoV-2 S2 fragment (fusion fragment; postfusion S2 trimer, peak 2) (domain or fragment)
  stoichiometry N: 3
